# Data as given in paper doi:10.1101/2023.08.14.553221 (bioRxiv, 2023).
# B1: human tissue transglutaminase (hrTG2, recombinantly produced in E.coli) (enzyme)
# chain: MAEELVLERCDLELETNGRDHHTADLCREKLVVRRGQPFWLTLHFEGRNYEASVDSLTFSVVTGPAPSQEAGTKARFPLRDAVEEGDWTATVVDQQDCTLSLQLTTPANAPIGLYRLSLEASTGYQGSSFVLGHFILLFNAWCPADAVYLDSEEERQEYVLTQQGFIYQGSAKFIKNIPWNFGQFEDGILDICLILLDVNPKFLKNAGRDCSRRSSPVYVGRVVSGMVNCNDDQGVLLGRWDNNYGDGVSPMSWIGSVDILRRWKNHGCQRVKYGQCWVFAAVACTVLRCLGIPTRVVTNYNSAHDQNSNLLIEYFRNEFGEIQGDKSEMIWNFHCWVESWMTRPDLQPGYEGWQALDPTPQEKSEGTYCCGPVPVRAIKEGDLSTKYDAPFVFAEVNADVVDWIQQDDGSVHKSINRSLIVGLKISTKSVGRDEREDITHTYKYPEGSSEEREAFTRANHLNKLAEKEETGMAMRIRVGQSMNMGSDFDVFAHITNNTAEEYVCRLLLCARTVSYNGILGPECGTKYLLNLNLEPFSEKSVPLCILYEKYRDCLTESNLIKVRALLVEPVINSYLLAERDLYLENPEIKIRILGEPKQKRKLVAEVSLQNPLPVALEGCTFTVEGAGLTEEQKTVEIPDPVEAGEEVKVRMDLLPLHMGLHKLVVNFESDKLKAVKGFRNVIIGPA
# modifications: Alexa Fluor 647 on primary amines (fiber stretch assay)
# B2: R1R2 peptide (collagen-mimicking peptide derived from the SFS FN-binding protein of Streptococcus equi) (peptide)
# peptide: GLNGENQKEPEQGERGEAGPPLSGLSGNNQGRPSLPGLNGENQKEPEQGERGEAGPP
# B3: short human tissue transglutaminase, aa 1-465 (short hrTG2, barrel 1 and 2 deletion mutant) (domain or fragment)
# chain: MAEELVLERCDLELETNGRDHHTADLCREKLVVRRGQPFWLTLHFEGRNYEASVDSLTFSVVTGPAPSQEAGTKARFPLRDAVEEGDWTATVVDQQDCTLSLQLTTPANAPIGLYRLSLEASTGYQGSSFVLGHFILLFNAWCPADAVYLDSEEERQEYVLTQQGFIYQGSAKFIKNIPWNFGQFEDGILDICLILLDVNPKFLKNAGRDCSRRSSPVYVGRVVSGMVNCNDDQGVLLGRWDNNYGDGVSPMSWIGSVDILRRWKNHGCQRVKYGQCWVFAAVACTVLRCLGIPTRVVTNYNSAHDQNSNLLIEYFRNEFGEIQGDKSEMIWNFHCWVESWMTRPDLQPGYEGWQALDPTPQEKSEGTYCCGPVPVRAIKEGDLSTKYDAPFVFAEVNADVVDWIQQDDGSVHKSINRSLIVGLKISTKSVGRDEREDITHTYKYPEGSSEEREAFTRANHLNKL
# modifications: Alexa Fluor 647 on primary amines
# B4: short human TG2 (aa 1-465) pre-incubated with the irreversible inhibitor Z006 (domain or fragment)
# chain: B3 chain
# Key:
# [1] = biological target: T1, Fibronectin (FN), full-length, isolated from human plasma (human, UniProt P02751-1); assay: cross-linking
# [2] = biological target: T1, Fibronectin (FN), full-length, isolated …; assay: FN-fiber stretch assay
# [3] = biological target: T1, Fibronectin (FN), full-length, isolated …; assay: microplate protein-binding assay
Binder,binding result [3],also measured
B1,–,binding result [1]: binds
B2,–,binding result [2]: binds
B3,binds,–
B4,binds,–
